Patent US20240200091A1, “USE OF PROTOPORPHYRINOGEN OXIDASE” (BEIJING DABEINONG BIOTECHNOLOGY CO., LTD., priority 2021, published 2024)

Columns and labels:
Assay type in all cases: in vivo
[1] = system: transgenic soybean plants; experiment: flumioxazin tolerance of transgenic soybean plants (spray, grade of pesticide damage); conditions: for The grade of pesticide damage/plant: grade 0 / The grade of pesticide damage/plant: grade 1 / The grade of pesticide damage/plant: grade 2 / The grade of pesticide damage/plant: grade 3: 7 DAT, number of plants of 16 per genotype, grades
[2] = system: transgenic soybean plants; experiment: saflufenacil tolerance of transgenic soybean plants (spray, grade of pesticide damage); parameters: key to damage levels rated at grade: grade 0 means that the growth status of plants is essentially consistent with those sprayed with the blank solvent (water); grade 1 means that the average of the damage levels of plants is less than 10%; grade 2 means that the average of the damage levels of plants is greater than 100%; grade 3 means that the average of the damage levels of plants is 100%; conditions: for The grade of pesticide damage/plant: grade 0 / The grade of pesticide damage/plant: grade 1 / The grade of pesticide damage/plant: grade 2 / The grade of pesticide damage/plant: grade 3: 7 DAT, number of plants of 16 per genotype, grades
[3] = system: Arabidopsis thaliana T1 plants; experiment: oxyfluorfen tolerance of transgenic Arabidopsis thaliana T1 plants (spray, grade of pesticide damage); conditions: 7 DAT, number of plants of 24 per genotype, grades
Summary of the method: (§1)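 T1 Arabidopsis (PPO constructs; glufosinate-selected) + vector and WT controls, n=24/genotype, d18 post-sowing. Spray 1×/higher field rate or water: saflufenacil 25/100, sulfentrazone 450/900, flumioxazin 60/240, oxyfluorfen 180/720 g ai/ha. Score 7 DAT, grades 0–3 by injured leaf area.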

[4] = system: Arabidopsis thaliana T1 plants; experiment: saflufenacil tolerance of transgenic Arabidopsis thaliana T1 plants (spray, grade of pesticide damage); conditions: 7 DAT, number of plants of 24 per genotype, grades
Summary of the method: as §1

[5] = system: Arabidopsis thaliana T1 plants; experiment: sulfentrazone tolerance of transgenic Arabidopsis thaliana T1 plants (spray, grade of pesticide damage); conditions: 7 DAT, number of plants of 24 per genotype, grades
Summary of the method: as §1

[6] = system: transgenic soybean plants; experiment: oxyfluorfen tolerance of transgenic soybean plants (spray, grade of pesticide damage); conditions: for The grade of pesticide damage/plant: grade 0 / The grade of pesticide damage/plant: grade 1 / The grade of pesticide damage/plant: grade 2 / The grade of pesticide damage/plant: grade 3: 7 DAT, number of plants of 16 per genotype, grades; for tolerance to oxyfluorfen: soybean
[7] = system: Arabidopsis thaliana T1 plants; experiment: flumioxazin tolerance of transgenic Arabidopsis thaliana T1 plants (spray, grade of pesticide damage); conditions: 7 DAT, number of plants of 24 per genotype, grades
Summary of the method: as §1

B1: PPO1A: nucleotide sequence encoding microbial protoporphyrinogen oxidase PPO1 (SEQ ID NO:1), Arabidopsis thaliana/soybean common codon usage bias (nucleic acid)
DNA: ATGAAGGCTTTGGTACTCTACAGCACAAGAGACGGTCAGACACACGCGATCGCGTCGTACATTGCTAATTGCATGAAAGAGAAGTATGAGTGTGACGTTATTGATCTTCTTCATGCTCAGCATGTTACATTATCACGGTATGATAAGGTTCTTGTAGGAGCTTCTATACGATATGGACATTTCAATGCTGTGTTGGACAAATTTGTGAAGCAAAACATCCAACAACTAAACTCAATGCCTTCTGCTTTCTTTGCTGTTAATTTGACTGCCAGGAAACCTGAGAAACGTACTCCTCAGACCAATTCTTATGTTAGGAAGTTTCTTCTGGGGACACCATGGAAACCAGCAATGTGTGGCGTGTTTGCAGGAGCATTGAGGTATCCACGTTACAGATGGGTTGATAAAGTGATGATTCAGCTCATAATGAGAATGACTGGTGGTGAAACAGATACAAGCAAAGAAGTTGAGTATACTGATTGGGAACAAGTCAAAAAGTTCGCAGAAGATTTTGGAAAGCTAAGTTACAAGAAAACCCTCTGA
modifications: PPO1A Nucleotide Sequence
[1]; flumioxazin 120 g ai/ha (2×)
  The grade of pesticide damage/plant: grade 0: 16 plant
  The grade of pesticide damage/plant: grade 1: 0 plant
  The grade of pesticide damage/plant: grade 2: 0 plant
  The grade of pesticide damage/plant: grade 3: 0 plant
[1]; flumioxazin 240 g ai/ha (4×)
  The grade of pesticide damage/plant: grade 0: 16 plant
  The grade of pesticide damage/plant: grade 1: 0 plant
  The grade of pesticide damage/plant: grade 2: 0 plant
  The grade of pesticide damage/plant: grade 3: 0 plant
[1]; soybean, flumioxazin at different concentrations (120 and 240 g ai/ha)
  tolerance to flumioxazin: high-resistant tolerance
[2]; saflufenacil 50 g ai/ha (2×)
  The grade of pesticide damage/plant: grade 0: 16 plant
  The grade of pesticide damage/plant: grade 1: 0 plant
  The grade of pesticide damage/plant: grade 2: 0 plant
  The grade of pesticide damage/plant: grade 3: 0 plant
[2]; saflufenacil 100 g ai/ha (4×)
  The grade of pesticide damage/plant: grade 0: 16 plant
  The grade of pesticide damage/plant: grade 1: 0 plant
  The grade of pesticide damage/plant: grade 2: 0 plant
  The grade of pesticide damage/plant: grade 3: 0 plant
[2]; soybean, saflufenacil at four-fold field concentration (100 g ai/ha)
  tolerance to saflufenacil: high-resistant tolerance
[2]; soybean, saflufenacil at two-fold field concentration (50 g ai/ha)
  damage levels rated at grade: 0
[2]; soybean, saflufenacil, compared with the control vector and CK
  tolerance to saflufenacil: different extents of tolerance
[3]; oxyfluorfen 180 g ai/ha (1×)
  The grade of pesticide damage/plant: grade 0: 24 plant
  The grade of pesticide damage/plant: grade 1: 0 plant
  The grade of pesticide damage/plant: grade 2: 0 plant
  The grade of pesticide damage/plant: grade 3: 0 plant
[3]; oxyfluorfen 720 g ai/ha (4×)
  The grade of pesticide damage/plant: grade 0: 19 plant
  The grade of pesticide damage/plant: grade 1: 5 plant
  The grade of pesticide damage/plant: grade 2: 0 plant
  The grade of pesticide damage/plant: grade 3: 0 plant
[4]; saflufenacil 25 g ai/ha (1×)
  The grade of pesticide damage/plant: grade 0: 24 plant
  The grade of pesticide damage/plant: grade 1: 0 plant
  The grade of pesticide damage/plant: grade 2: 0 plant
  The grade of pesticide damage/plant: grade 3: 0 plant
[4]; saflufenacil 100 g ai/ha (4×)
  The grade of pesticide damage/plant: grade 0: 4 plant
  The grade of pesticide damage/plant: grade 1: 20 plant
  The grade of pesticide damage/plant: grade 2: 0 plant
  The grade of pesticide damage/plant: grade 3: 0 plant
[5]; sulfentrazone 450 g ai/ha (1×)
  The grade of pesticide: grade 0: 24
  The grade of pesticide: grade 1: 0
  The grade of pesticide: grade 2: 0
  The grade of pesticide: grade 3: 0
[5]; sulfentrazone 900 g ai/ha (2×)
  The grade of pesticide: grade 0: 20
  The grade of pesticide: grade 1: 4
  The grade of pesticide: grade 2: 0
  The grade of pesticide: grade 3: 0
[6]; oxyfluorfen 360 g ai/ha (2×)
  The grade of pesticide damage/plant: grade 0: 16 plant
  The grade of pesticide damage/plant: grade 1: 0 plant
  The grade of pesticide damage/plant: grade 2: 0 plant
  The grade of pesticide damage/plant: grade 3: 0 plant
[6]; oxyfluorfen 720 g ai/ha (4×)
  The grade of pesticide damage/plant: grade 0: 16 plant
  The grade of pesticide damage/plant: grade 1: 0 plant
  The grade of pesticide damage/plant: grade 2: 0 plant
  The grade of pesticide damage/plant: grade 3: 0 plant
[6]; oxyfluorfen at four-fold field concentration (720 g ai/ha)
  tolerance to oxyfluorfen: high-resistant tolerance
[6]; oxyfluorfen at two-fold field concentration (360 g ai/ha)
  tolerance to oxyfluorfen: high-resistant tolerance
[7]; flumioxazin 60 g ai/ha (1×)
  The grade of pesticide damage/plant: grade 0: 24 plant
  The grade of pesticide damage/plant: grade 1: 0 plant
  The grade of pesticide damage/plant: grade 2: 0 plant
  The grade of pesticide damage/plant: grade 3: 0 plant
[7]; flumioxazin 240 g ai/ha (4×)
  The grade of pesticide damage/plant: grade 0: 23 plant
  The grade of pesticide damage/plant: grade 1: 1 plant
  The grade of pesticide damage/plant: grade 2: 0 plant
  The grade of pesticide damage/plant: grade 3: 0 plant
